Measured values as given in patent publication US20200147199A1.

Molecular target: ZIKV E Domain III ([..]), polyhistidine-AviTag, produced in HEK-293-6E cells (ZIKV)
Test: ELISA, biotinylated Z004 on coated ZEDIII, streptavidin-HRP
Details: remark: other sources report otherwise

B1: Z004 (MEX18_89) (antibody, V domains shown)
VH: EVQLLESGGGLVQPGGSLRLTCATSGFTFRDYAMSWVRQAPGKGLEWVSSYSGIDDSTYYADSVKGRFTISRDNSKSTLSLHMNSLRAEDSALYFCAKDRGPRGVGELFDSWGQGTLVTVSS
VL: DIQMTQSPSTLSASVGDRVTITCRASQSISKWLAWYQQKPGKAPKLLIYTTSTLKSGVPSRFSGSGSGTEFTLTISSLQPDDFATYYCQHFYSVPWTFGQGTKVEIK
EC50: 0.16 µg/mL
